Reference: patent US20100016275A1, “NOVEL COMPOUND 395” (priority 2008, published 2010)

Molecular target: T1, human CXCR2 receptor (Homo sapiens, UniProt P25025)
T1 construct: expressed in transfected cells; host or cells: HEK293, stably transfected geneticin-resistant clones, vector RcCMV; membranes purified by sucrose gradient
T1 sequence (P25025 1-360): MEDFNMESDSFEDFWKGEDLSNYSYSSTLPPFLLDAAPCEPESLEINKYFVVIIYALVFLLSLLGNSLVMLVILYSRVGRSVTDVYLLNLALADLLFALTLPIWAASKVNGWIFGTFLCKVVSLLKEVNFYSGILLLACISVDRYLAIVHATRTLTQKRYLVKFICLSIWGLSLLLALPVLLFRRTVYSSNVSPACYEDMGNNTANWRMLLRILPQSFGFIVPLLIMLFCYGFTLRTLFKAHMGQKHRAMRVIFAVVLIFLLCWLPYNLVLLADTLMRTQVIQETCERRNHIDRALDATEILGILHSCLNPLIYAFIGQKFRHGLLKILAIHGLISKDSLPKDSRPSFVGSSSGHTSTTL
Assay: Potency (pIC50) ligand binding assay, inhibition of [125I]IL-8 binding
Conditions: human CXCR2 membranes; read-out: Kd (equilibrium dissociation constant) determined for IL-8
Protocol: Potency (pIC50)—Ligand Binding Assay
The potency of antagonists at the human CXCR2 receptor was determined in vitro by quantifying their ability to inhibit specific binding of the CXCR2 radioligand, [^125I]interleukin-8 (IL-8), from membranes of HEK293 cells transfected with the human recombinant CXCR2 receptor.
Commercially sourced materials were obtained as follows: U-bottomed 96-well plates (3799) and 225 cm^2 vented cap culture flasks (3001) from Costar, Corning, Kent, UK. Multiscreen filter plates (0.45 μm; MAHV N45 50), vacuum manifold and pump (XF54 230 50) from Millipore, Watford, UK. N-[2-hydroxyethyl]piperazine-N′-[2ethanesulphonic acid] (HEPES; H-3375), ethylene diamine-tetraacetic acid (EDTA; E1644), magnesium chloride (M-9272), gelatin (G9382), dithiothreitol (DTT; D06052), sodium chloride (S3160/63), sodium hydroxide (B6506), bacitracin (B0125), inactivated foetal calf serum (FCS; CR0848) and DMSO Fluka Chemika (41648) from Sigma, Poole, UK. MicroScint-O (6013611) Packard BioScience, Pangboume, UK. Complete protease inhibitor cocktail tablets (1836145) from Boehringer s Mannheim, GmbH, Germany. Human recombinant [^125I]IL-8 74 TBq/mmol, 0.712 MBq/ml (IM249) from Amersham, Horsham UK. All other tissue culture reagents were purchased from Invitrogen, Paisley, Scotland, UK. All other chemical reagents were analytical grade from Fisher Scientific, Loughborough, UK
HEPES-buffered salt solution pH 7.4 containing HEPES (10 mM), potassium chloride (2.7 mM), sodium chloride (137 mM), potassium hydrogen phosphate (0.4 mM), calcium chloride (1.8 mM), magnesium chloride (1 mM), gelatin (0.1% (w/v)) and bacitracin (100 μg/ml).
HEPES-buffered Tyrode's solution pH 7.4 containing HEPES (10 mM), potassium chloride (2.7 mM), sodium chloride (137 mM), potassium hydrogen phosphate (0.4 mM), glucose (11 mM).
Hypotonic buffer: 3:1 mix of water: HEPES-buffered Tyrode's solution.
HEK293 cells were transfected with human CXCR2 (EMBL L19593) cDNA, previously cloned into the eukaryotic expression vector RcCMV. Cloned cell-lines were generated from stably-transfected geneticin-resistant populations. Cells were routinely grown to approximately 80% confluence in DMEM medium containing 10% (v/v) foetal calf serum and glutamine (2 mM) in a humidified incubator at 37° C., 5% CO2. Cells were harvested from flasks using Accutase™ at 37° C. for 3 to 5 minutes and resuspended on ice in hypotonic buffer at a density of 2×10^7 cells/mL. Membranes were prepared on ice by homogenisaton using a polytron tissue homogenizer set at 22000 rpm. The membrane fraction was purified by sucrose gradient centrifugation where homogenised cells were layered onto 41% (w/v) sucrose solution then centrifuged at 140000 g for 1 hour at 4° C. The membrane fraction was harvested at the interface, diluted 4-fold with HEPES-buffered Tyrode's solution and centrifuged at 100000 g for 20 minutes at 4° C. The membrane pellet was re-suspended at 1×10^8 cell equivalents/mL in HEPES-buffered Tyrode's solution and subsequently stored in aliquots at −80° C. All buffers used for membrane preparation and storage were made in the presence of 1 mM DTT and Complete Protease Inhibitor™ cocktail tablets, made up to manufacturers instructions.
Assays were performed in HEPES-buffered salt solution in 96-well plates. [^125I]IL-8 was used at a final concentration of 0.06 nM, pre-diluted from a 9.6 nM stock. The final DMSO concentration in the assay was 1% (v/v). Test compounds were prepared by serial dilution in DMSO followed by a ten-fold dilution into HEPES-buffered salt solution to give a working solution containing compound and 10% DMSO. The control for total binding (B0) of [^125I]IL-8 was determined in the absence of compound. The control for non-specific binding (NSB) was determined by measuring [^125I]IL-8 binding in the presence of (1R)-5-[[(3 -chloro-2-fluorophenyl)methyl]thio]-7-[[2-hydroxy-1-methylethyl]amino]thiazolo[4,5-d]pyrimidin-2(3H)-one dihydrate, sodium salt at 1 μM final concentration. […]

Work on “IL-8: interleukin-8, CXCR2 ligand, used as the human recombinant [125I] radioligand” yielded a Kd of 1.2 nM.
